Reference: the domain aggregation screens of Martell et al. (2025)

Test: soluble fraction after stress (log2 fold change); higher = more stays soluble; pooled small domains, quantitative proteomics
Details: stress: pH 4
Method in brief: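 Pooled custom libraries of small protein domains were subjected to pH 4 and measured by high-throughput quantitative proteomics. The log2 fold change in soluble amount per domain is reported, higher values meaning more remained soluble. This is used as a measure of aggregation propensity.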

Sequence | soluble fraction (log2)
HMDEKVTIPSVSGLLLSEAKTKLVDAGLTVETVYDDESKEAKDTVLSQSPLQYGKVDKGTVVTLTVSSGKG | 0.417
HMDELPKDILRSFGLPDKPWAMELLRNLRRDGFALDGETARAYAEMAAMKPPRTDARQWMTAADVAYRRG | 0.105
HMDEMPVEFVKISIKAGHPWENRKIKDLASLPDLLLVLILRGEERIIPNGNTVVLAGDKIVLSALSPE | -1.94
HMDENILKTRIEDLDLSVRTIKALTGASIRTVSGLARKKESDLLEISGLGDKGIQEIKRALGSLGITL | -0.0429
HMDENTEQESQTVVVPDVTGKSLSEAASILREAGLDYLAEQTGTVVTKQMPLPDAEVLINTTVLLYTDSE | -0.456
HMDEPSITYGKVKVQTSLNVRQGPGTQYARIGSLGPNVRIQILGQEGQWYKIKYGNLQGYVHSDYVELEK | -0.376
HMDEQKNREIALIENIQREDLNPYEKALGIRNLMDKYGLTQEEVSKRIGKSRSAVSNTVRILNLAPDVL | -0.0309
HMDEQLAWLYRKINAFSEIDKALILLYLEDKKYDEIAETLGISSVNARVKMNRIKKRLKEMINDR | -1.02
HMDEQVETLKNLISELPKEQLEVLVMRHYEDLSFKEISEKTGVSINTALGRMRYALINIRKLMKENN | -0.488
HMDESLIEEAKAMILQMKIEGSVRVRSNGLLEFRNPLFGSVYGRSVEELQEKLNKKVREQKSRI | 0.194
HMDEVPMPPEYQYLRVGSRVHHATFGWGKVTRLSQPWPQTRAEVFFENIGPKKLVLAHAHLTMD | 0.113
HMDEYTAVDSRLDLELAMKRLKPEEAEVLRLVFDYGLPQRAIAERLGVSQMSVSRMQRRAIGKLKRWLSDN | -0.678
HMDFKKKIIESWADIAETLRGLTVDSNISDWTTKQKNAYETLADKAELAGLSIADLNSILVELGYM | -0.378
HMDFNDPTMEKSLVELPAMSNSTLRDLSENNIKKLEELAEMSVGELMDIASKISESDASALIMEARKPWF | -0.741
HMDFRVGVWVELVQQRRSVRTQLTWVSPQHTLFLFTAKDGSTQSMTLRMRDKLLAEGNLRIVAPPSR | 0.22
HMDFSENEPVTVRVLSILKNNTIRIAVKGAVLQAQTALSQDIREGAFLLMRVHITDNTVVLTPY | -0.193
HMDFSNVNFSQVSDSELDLLMRRASAQGYTQFDLLKIARAQGLTQAEIEKLDKRFKSAETVAYVAENA | 0.0811
HMDFTHFTLKQDGKFAGSSNLLHQAVIAAARLAAETGKPVTVMAHVRGGGTRKAVFNPDGTNDKIWN | -0.0338
HMDGAPVTVIKNGEVDVATTMRVGLSASELMFKLRAAGVDEVQIVHRAVLEQNGQLTIIKYGEE | -1.2
HMDGASVQRITELTATLNRYRHEYYNLAKPSVSDAVYDRLFDELAALEQKTGIVLSNSPTQTV | -0.759
HMDGFVFVMPIKETRMFSVNDERPLVGIVKYSNGEFEKEQLIGFRPNSEYEFIIEGQRLYRVPVNSITIK | -1.25
HMDGIRLYPGLMIEHKNFGRGQVVSVNRERGTFTAFFGKNGTRTLTIQILKTDTVRPLASQKAGK | -0.405
HMDGKPSLIISNGQINYKEMVKLRYSLEDLLFQLRQNSIKSIEEVEYAFLESNGKLSIFPYNFL | -1.65
HMDGLGLGAVILAQRKRQGWTQEDLAARIGVSKGAVSKWETGQSYPDLPLVPRLAALFHITVDELLDYR | 0.263
HMDGLIRLNKLLATLGVESRRHAEEMIIAGRITVDGVTATEKGQKVRRGAVIKVDGVEVGPPP | 0.0501

Sequence | soluble fraction (log2)
HMDGQPQLLIKNGQLLVSTALKNGMSANDLMFRLRTEGITDIRYVKRAVLEQNGQLTITQVGDD | -0.0398
HMDGVTEYTVKSGDSFSAIINKHYNVNYDEKLMQAVAAYNNIEDMNKLQLGQIIKLPPKEQLNL | -0.118
HMDGYVPAERIASEVGVSARTITREMHGLEMTLMPYGIALLRRTGAGFMLAGTAKALADLRKHMTEDADTQ | 0.167
HMDHAHWEEHEVKLLLTLAIQEKEKFNWNQFGLTREGWRNIYPHFPQYSRKQINNKFDFLKQKYRAWKDS | -1.09
HMDHAVINSEEVTIKDLSEKIGVSAAEIIKALFTEGIIKTINDKIEYEYAQYVAGMFGVELTLKL | 0.188
HMDIANEQEQIFITAMRNDDFNPILELKMKGYQPSKNVLKSLQPDVSSTTFIAAAKIFQMEGVL | -1.31
HMDIASNQIQGIKDSVGGDENYSKMVAWALESLPAEEVKAFNDLTETANAPAIKMAVQGLYSQYNNAM | -0.9
HMDIDGVSENGRLILAALDKEALDFDTLAAETGIQESRLRTELTLLEIRKLIMKLPGQRYRLI | 0.28
HMDIDNDIIENILVMGVTKAIAINLSNEFERHRIIANIEYAKEKSKNSEIKNISAFTVEAIRQDYANS | -1.12
HMDIEITIPPEAKELDVSKILISGNIITDEQEFLDYLKQNNVAAFKDGNYKLNKNMTTEEIVNQIK | -1.2
HMDIESREAWVDASGMGVRLDRWLTQLAPEFSRNHLQSLIERGAVRVDGQPALVASRKLRIGQQVAVSLIP | -0.0568
HMDIEVEVPNLVGMSLDEAKSIIQSMGLVVGLTIEDPSAKVSDNSVTKQKPTYQTGVKLRSGDMIDIWYAG | -0.676
HMDIFSSFVAIKNANVRELPTAKSAQVATLSKGSEVTALGKVKGKNWYLVARDGKELGYVFGSLIAEAET | 0.143
HMDIINLADNIARLRRRRQITQEELADYLGVTKAAVSKWENRQTMPDILLLPRLAGLFEVTIDELVGY | -1.72
HMDIKDRSGVTIDESNEAQQESIIRESWAEQKISGNVDNYIAYLKANGMLLETAKIELAALQEKDASLRE | -0.78
HMDILEVLIKKDLAMELLEQLTERQRTVVYLRYFYQLNQKEIADYLGISQQRVSEILSRAKAVLTAYTKK | -0.878
HMDILPEGNYKVNYDVIDEVGNIVANKNDIVVTEKSIKPLNTILGIDLYEVIHSQTGKYFTINGDNLTN | -0.328
HMDINLGIGPLVKKYRTIKGYSIRELARNINVTASMLSQIERDIVNPSINTLKAISVELGVPMYKFFM | -0.217
HMDINLSENLVRLRHAKKLTQEQLADFLGVTKASVSKWETRQSLPDILLLPRLAAFYGVTVDELIGYEP | ≥ 0.43
HMDISKTLGKNPLLIIDNIEYRGKTLDEITAMTGVKRFENIDIYGSEEAMKTYGEKAKDGVIIAYTT | -0.62
HMDITGIGIKKRIKAIIDSEDKKNPLSDTQIVEILKNEGLEISRRTVAKYRSDLQIPSSSKRKK | 0.335
HMDIVEIYVGEEDGERIDSYLAQELNNVSRSYVQGLIKNQLITVNGNHVKPKHIVKEGEHIIVNIPPPKV | -0.108
HMDIVENSMPNVVGLELNRAKELMTQLGFTNVRYEPTESSRPENEVVYQSVDKDETLDVSSEIIIQYSSGV | -0.535
HMDKEKLQEKLLQIFEAEPQKKFQVQDLVKVLDMEGAGQFKFVVQALADLEHNKQIKLSEDDTFSLIVKE | 0.22
HMDKENVLQLQKDLLRLSVNALEKRYYQFSDILLLKYILPLVPKEISIDDQSRLRSLLSGIN | -0.754

Sequence | soluble fraction (log2)
HMDKEPTHLHTFRLIKEGKSSEEIAEIRNITLGTVNTHLAKLIAVGELTIEQVISKHRLDYVMEAIKNSK | -0.825
HMDKKIVGVNAGKVWQALNEVTEISIVELAEKLNLSVESTALAAGWLAREDQISIERKNGTIELQRKN | -0.177
HMDKNNLLIIYRTNSEGTPYAFSVTPSAKSLDALHKDAKEMLPFLEKSMNNFFSIQIWERAEYLKY | -0.379
HMDKPGMRLNQFIAHSGISSRREADNLIKAGLVQVNGKIIVEMGFRVMPTDIVKFNNETIAS | 0.378
HMDKPIVFLEDTKAHKSSDLQSPVYMTVPKGTIAFVIAEKGDWSQVYAGRVLDRNLASQWVRRGFS | 0.191
HMDKSLDFASIKSVEIATGRKFGWHALKKWSKSNSSEIKTIPDPNFGEVKTYHKDAWLAVYNINLSPILD | -0.0629
HMDKSPMIGTAEYEGVLYWRQTKDNGATWEWITDKNGDKMPVSGPAPAVGIDKDGYWTVNGESTGVLAKD | -0.0267
HMDKVSYALGLGIGRQLTDMGAKDLNIDDFAQAIKDVLAGGEVKLSDAEAQTIVRNFFDEQEKKQRA | -0.637
HMDLANLQNGQTLPLQRDVEVISIPFGKTISLSEDSVVSIMQAKGSSVSVAYEGRLYLIEGSNLDALGLEP | -0.888
HMDLANRSLDRGITILESLARNGASSLADLHRDSGIAKSTIRRLLGTLIQHRLVRRSVADGLYRVTIPLPA | 0.025
HMDLDIQNYNLDEILELFKVSYDFDETELKKAHKMYLMTHPDKSNLNPNIFLFFVQAYDILRKLYEFR | -1.66
HMDLDIRDDIYRANIPNDYKLQQMQNNIDYDKVLTGYYNNRPEANVIANRTLQLANDVYNRD | -0.296
HMDLDLNIDNYNFDDLLNLFGLKMKFSEDDLKKAKRSVLMTHPDKSGLDKQYFMFFTKAYKMLSQIYYFR | -0.779
HMDLDPNKPAIPIAYPRVLLNIMAEKGFSRTEVLAGSGLADSVFDKPDHRITPAQFLFILMNSFYLS | -0.631
HMDLFLVYQFIRRLATPFTEWKAHELGIIDDKGVQLKKRRDFTTREEKDAYGIFDIMITKLKRLIEKV | -1.04
HMDLFSAVVHHIVGQQISTKAQATIWKRMRDEFGVVDAAAVLGAGVEKLQSFGMTFRKAEYITDFARKIE | -0.651
HMDLGLTDDQRLVYGLLSPTVPRSSGELLGMVDFGRSKLSRILKELIELGQVFTVGVGRGLKYKRG | -0.256
HMDLGTHMRLIVPTGMRVDHIVYESNGKNISVDHDRSISVRWNGEVVSIDVSPLPSRPDFDVLIYMSPK | -0.162
HMDLLAESLTRREAEVAALAARGLTNRAIAELFGLSVRTAETHLHRAMGKLGANRREDLLLHADRLDPG | -0.618
HMDLLESLSAREREVVHLASRGLVNKLIARELGITERTVKAHLSSAFEKLHIKDRVHLALLVNGI | -0.48
HMDLLKANNLSQINVDKLTDEEILKYSQQLKQSGLTESQAEQIAIARGMPATEIAKLKQRLISLTNMQ | 0.213
HMDLLVWRVADEDAGERIDKLVVDSLDDVSRTAVQQWIKDGLVTVNGKTVKPNYKAAAGDEVAVSVPEPE | -0.514
HMDLMKKTLTKEMLLIDFMKQQFPDSSTNKLRKMLSSGRVKINNLITHKAKSQLKLGDIFELANKPHD | 0.124
HMDLPGIVTETDRQRADLAARIGAAKVEAVLAGGARSVEADEDFDADTRRELHQFLTRMARRAFLEER | -0.722
HMDLPSSETLKVKLNLAKAYVTIEDFGAARRALDEVLSVSSLVDPDLTIQAKSLLAEIDQRS | -0.0976
